Experimental data taken from PMC2778552.

Target: T1, human recombinant aromatase (human) (UniProt P11511)
T1 sequence: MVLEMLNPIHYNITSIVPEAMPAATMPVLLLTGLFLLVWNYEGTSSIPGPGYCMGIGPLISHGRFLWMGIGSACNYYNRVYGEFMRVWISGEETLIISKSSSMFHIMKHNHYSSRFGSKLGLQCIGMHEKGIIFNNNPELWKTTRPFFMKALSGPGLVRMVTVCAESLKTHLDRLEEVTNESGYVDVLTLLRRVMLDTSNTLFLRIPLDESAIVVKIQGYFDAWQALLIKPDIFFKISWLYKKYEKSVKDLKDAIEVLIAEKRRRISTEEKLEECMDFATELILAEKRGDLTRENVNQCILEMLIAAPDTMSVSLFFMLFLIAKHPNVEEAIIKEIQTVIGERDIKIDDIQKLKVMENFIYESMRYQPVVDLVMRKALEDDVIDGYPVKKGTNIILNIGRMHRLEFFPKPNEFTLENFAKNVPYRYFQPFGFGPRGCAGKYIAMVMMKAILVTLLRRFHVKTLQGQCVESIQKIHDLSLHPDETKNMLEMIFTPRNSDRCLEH

Km of aromatase for reductase from Lineweaver–Burk plots; tritiated water release from [1β-3H(N)]-androstenedione, 50 nM pure aromatase, reductase 1 nM to 20 nM, androstenedione 10 nM to 500 nM, 37°C: 1 nM
B1: NADPH-cytochrome P450 reductase (enzyme)
chain: MGDSHEDTSATMPEAVAEEVSLFSTTDMVLFSLIVGVLTYWFIFRKKKEEIPEFSKIQTTAPPVKESSFVEKMKKTGRNIIVFYGSQTGTAEEFANRLSKDAHRYGMRGMSADPEEYDLADLSSLPEIDKSLVVFCMATYGEGDPTDNAQDFYDWLQETDVDLTGVKFAVFGLGNKTYEHFNAMGKYVDQRLEQLGAQRIFELGLGDDDGNLEEDFITWREQFWPAVCEFFGVEATGEESSIRQYELVVHEDMDVAKVYTGEMGRLKSYENQKPPFDAKNPFLAAVTANRKLNQGTERHLMHLELDISDSKIRYESGDHVAVYPANDSALVNQIGEILGADLDVIMSLNNLDEESNKKHPFPCPTTYRTALTYYLDITNPPRTNVLYELAQYASEPSEQEHLHKMASSSGEGKELYLSWVVEARRHILAILQDYPSLRPPIDHLCELLPRLQARYYSIASSSKVHPNSVHICAVAVEYEAKSGRVNKGVATSWLRAKEPAGENGGRALVPMFVRKSQFRLPFKSTTPVIMVGPGTGIAPFMGFIQERAWLREQGKEVGETLLYYGCRRSDEDYLYREELARFHKDGALTQLNVAFSREQAHKVYVQHLLKRDREHLWKLIHEGGAHIYVCGDARNMAKDVQNTFYDIVAEFGPMEHTQAVDYVKKLMTKGRYSLDVWS
